Results as given in the nanobody polyreactivity screen of Harvey et al. (2022).

Test: yeast display, Sf9 membrane polyspecificity reagent, FACS + sequencing; frameworks hold sequencing errors
Procedure, shortened: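 Polyreactivity labels are assigned by the sorting gate from which each nanobody was recovered. The gates were low and high (top ~1%), set on anti-HA fluorescence for expression and streptavidin fluorescence for reagent binding. Before sorting, galactose-induced (36–48 hours) yeast display cells were stained for 1 hour at 4 °C with 10% biotinylated, detergent-solubilized Sf9 membrane reagent.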
With “QVQLVESVGGVVQAGGSLGLSCAASGRPFGRNVMGWYRQAPGKERELVAAISRSGGSTYYADSVKGRFTISRDNAKNTVYFQMNSLKPEDTAVYYCAAYSVGDYYWGQGTQVTVSS” the “polyreactivity (PSR sort gate)” value was “high polyreactivity”. With “QVQLVESVGRLVQAGGSLRLSCAASGSIIRSYTKGWYRQAPGKEWELVAASSGRAGSTYYADSVKGRFTISRDIAKNTVYLQMPGLKPEDTAVYYCAVILGGRAQSYYWGHGTQVTVSS” the “polyreactivity (PSR sort gate)” value was “high polyreactivity”. In the case of “QVQLVESVGRLVQAGGSLRLSCGASGRIFKWYAMGWFRQARGNERELVAAITSRGSTYYADSVKGRFTISRDNAKNTVYLQMNSLKPEDTAVYYCNRYVVHRRDDYWGQGTQVTVSS”, the “polyreactivity (PSR sort gate)” value is reported as “high polyreactivity”. In the case of “QVQLVESVGVLVQAGGSLHLSCAASGSTFRYNAIGWYRQAPGKEREVVAAISKRGGSTYYADSVKGRFTISRDNAKNTVYLQMNSLKPEDTAVYYCAASYPSWSTRGESDYWGQGTQVTVSS”, the “polyreactivity (PSR sort gate)” value is reported as “high polyreactivity”. In the case of “QVQLVESVLGLVQAGGSLRLICDASGSIFGYNVIGWYRQAPGKERELVAAITGRGDSTYYADSVKGRFTISRDNAKNTVYLQMNSLKPEDTAVYYCAAYPNQSEYYYWGQGTQVTVSS”, the “polyreactivity (PSR sort gate)” value is reported as “low polyreactivity”. With “QVQLVESVRGLVQAGGSLRLSCAASGSIFDYNAMGWYREAPGKEREFVASITYSGGSTNYADSVKGRFTISRDNAKNTVYLQMNSLKPEDTAVYYCSKTIGIVWIYYPGARYDYWGQGTQVTVSS” the “polyreactivity (PSR sort gate)” value was “low polyreactivity”. With “QVQLVESVRGLVQAGGTLRLSCAPSGGIFWVYAMGWYRQAPGKERELVAAISNSDTSTSYADSVKGRFTISRVNAKNTVYLQMNSLKPEDTAVYSCNADSPSLSGDYWGQGTQVTVSS” the “polyreactivity (PSR sort gate)” value was “low polyreactivity”. In the case of “QVQLVESVVCLVQAGGSLRLSCAASGSIFRSYAMGWYRQAPGKERELVASISRRGGSTYYADSVKGRFTISRDNAKNTVYLQMNSLKPEDTAVYYCAAVGYNSRVSTTPSEMYYWGQGTQVTVSS”, the “polyreactivity (PSR sort gate)” value is reported as “high polyreactivity”. For “QVQLVESVVGLVQAGGSLRLSSAASGGTFSENAMGWYRQAPGKERELVAAITWSVGNTYADSVKGLFTISRDNAKNTVYLQMNSLKPEDTAVYYCAKDFSVPAYDYWGLGTQVTVSS”, the “polyreactivity (PSR sort gate)” value was “low polyreactivity”. For “QVQLVESVVGLVQAGRSLRLSCAASGYTFWQYAMGWYRQAPGKERELVATITSRGGSTYYADSVKGRFTISRDTAKNSVYFQMNSLKPEDTAVYYCAARVYYPSTSNAAYGYCGQGTQVTVSS”, the “polyreactivity (PSR sort gate)” value was “high polyreactivity”. In the case of “QVQLVESVVGLVQARVSLRLSCASSGFIFRFYTMGWYIQPPGKESEFVPAISWSGTSTYYADSVKGRFTISRDNAKNTVYLQMNSLKPEDTAVYYCAAGYKWKGTVWIMDYWGQGTQVTVSS”, the “polyreactivity (PSR sort gate)” value is reported as “high polyreactivity”. With “QVQLVESWGALVQAGGSLRLSCAASRRTFALNAMGWYRQAPGKETELVAAITSSGGSSYYADSVKGRFTISRDIAKNSVYLLMNSLNPVDTAVYYCAADRHYGTEYAYDYWGEGTQVTVSS” the “polyreactivity (PSR sort gate)” value was “low polyreactivity”. With “QVQLVESWGGLVQAAASLRLICDASGRTIRWSAMGWYRPAPGKERELVATITTSGTPSYADSVKGRFTISRDNAKNTVYLQMNSLTPEDTAVYYCAADTYPWGGSSSYDWGQGTQVTVSS” the “polyreactivity (PSR sort gate)” value was “high polyreactivity”. In the case of “QVQLVESWGGLVQAGCRLRLSCAASGRTFLTYVMGWYRQAPGKERELVAAITRGGRTNYADSVKGRFTISRDNAKNTVFLQMNSLKPEDTAVYYCARDDTPRYDYWGQGTQVTVSS”, the “polyreactivity (PSR sort gate)” value is reported as “low polyreactivity”. For “QVQLVESWGGLVQAGGSLPLSCAASGFTFVSYAMGWSRQAPGKERELVAAISKRGGSTSYADSVKGRFTISRDNAKNTVYLQMNSLKPEDTAVYYCYKRSYAWSPHVDYWGQGTQVTVSS”, the “polyreactivity (PSR sort gate)” value was “high polyreactivity”. With “QVQLVESWGGLVQAGGSLRISCAASGRISYGYAMGWYRQAPGKERELVAAISRSGGTTYYADSVKGRFTISRDNAKNTVYLQMNSLNPEDTAVYYCAAGDAYYTEALPFGDYDYWGQGTQVTVSS” the “polyreactivity (PSR sort gate)” value was “low polyreactivity”.
